Patent US20250235501A1 (UNIVERSITY OF CONNECTICUT, published 2025)

Molecular target: T1, Endogenous TRPM2 of mouse brain and cultured mouse cortical neurons (mouse, UniProt Q91YD4 1-1506)
T1 construct: whole, on cells
Experiment: co-IP with anti-TRPM2, western blot, PKCγ/TRPM2 ratio, brain tissue
Protocol: Thus, whether PKC interacts with TRPM2 was investigated.
NP-40 lysis buffer ([…], 150 mM NaCl, 1 mM EDTA, 50 mM Tris, pH=8.0) containing proteinase inhibitors (Sigma-Aldrich, 539131-10VL) and phosphatase inhibitors (Thermal Fisher Scientific, 78428) was used to lyse both cultured cells and frozen brain tissue. For transfected cells, proteins were extracted 36 hours after transfection. Cell and tissue lysate were lysed by ultrasound using an ultrasonic cleaner (Thermal Fisher Scientific) filled with ice-cold water for 30 min. After incubated on ice for 1 h, lysate was centrifuged at 13000 g for 30 min and supernatant was collected. Protein concentration was measured using Pierce™ Rapid Gold BCA Protein Assay Kit (Thermal Fisher Scientific, A53225). 300 μg of protein was taken and diluted using NP-40 lysis buffer to make a total volume of 500 μl. Unused protein was allocated and frozen at −80° C. for future use. Appropriate amount of antibody was added based on instruction. After protein-antibody mixture was incubated on ice for 2 h, 25 μL of pre-washed Protein A/G PLUS-Agarose (Santa Cruz Biotechnology, sc-2003) was added, and the whole mixture was incubated at 4° C. for overnight. Then the mixture was centrifuged at 2500 g for Imin to get agarose beads. […] Then samples were ready for western blotting analysis.

T1 sequence (Q91YD4 whole entry): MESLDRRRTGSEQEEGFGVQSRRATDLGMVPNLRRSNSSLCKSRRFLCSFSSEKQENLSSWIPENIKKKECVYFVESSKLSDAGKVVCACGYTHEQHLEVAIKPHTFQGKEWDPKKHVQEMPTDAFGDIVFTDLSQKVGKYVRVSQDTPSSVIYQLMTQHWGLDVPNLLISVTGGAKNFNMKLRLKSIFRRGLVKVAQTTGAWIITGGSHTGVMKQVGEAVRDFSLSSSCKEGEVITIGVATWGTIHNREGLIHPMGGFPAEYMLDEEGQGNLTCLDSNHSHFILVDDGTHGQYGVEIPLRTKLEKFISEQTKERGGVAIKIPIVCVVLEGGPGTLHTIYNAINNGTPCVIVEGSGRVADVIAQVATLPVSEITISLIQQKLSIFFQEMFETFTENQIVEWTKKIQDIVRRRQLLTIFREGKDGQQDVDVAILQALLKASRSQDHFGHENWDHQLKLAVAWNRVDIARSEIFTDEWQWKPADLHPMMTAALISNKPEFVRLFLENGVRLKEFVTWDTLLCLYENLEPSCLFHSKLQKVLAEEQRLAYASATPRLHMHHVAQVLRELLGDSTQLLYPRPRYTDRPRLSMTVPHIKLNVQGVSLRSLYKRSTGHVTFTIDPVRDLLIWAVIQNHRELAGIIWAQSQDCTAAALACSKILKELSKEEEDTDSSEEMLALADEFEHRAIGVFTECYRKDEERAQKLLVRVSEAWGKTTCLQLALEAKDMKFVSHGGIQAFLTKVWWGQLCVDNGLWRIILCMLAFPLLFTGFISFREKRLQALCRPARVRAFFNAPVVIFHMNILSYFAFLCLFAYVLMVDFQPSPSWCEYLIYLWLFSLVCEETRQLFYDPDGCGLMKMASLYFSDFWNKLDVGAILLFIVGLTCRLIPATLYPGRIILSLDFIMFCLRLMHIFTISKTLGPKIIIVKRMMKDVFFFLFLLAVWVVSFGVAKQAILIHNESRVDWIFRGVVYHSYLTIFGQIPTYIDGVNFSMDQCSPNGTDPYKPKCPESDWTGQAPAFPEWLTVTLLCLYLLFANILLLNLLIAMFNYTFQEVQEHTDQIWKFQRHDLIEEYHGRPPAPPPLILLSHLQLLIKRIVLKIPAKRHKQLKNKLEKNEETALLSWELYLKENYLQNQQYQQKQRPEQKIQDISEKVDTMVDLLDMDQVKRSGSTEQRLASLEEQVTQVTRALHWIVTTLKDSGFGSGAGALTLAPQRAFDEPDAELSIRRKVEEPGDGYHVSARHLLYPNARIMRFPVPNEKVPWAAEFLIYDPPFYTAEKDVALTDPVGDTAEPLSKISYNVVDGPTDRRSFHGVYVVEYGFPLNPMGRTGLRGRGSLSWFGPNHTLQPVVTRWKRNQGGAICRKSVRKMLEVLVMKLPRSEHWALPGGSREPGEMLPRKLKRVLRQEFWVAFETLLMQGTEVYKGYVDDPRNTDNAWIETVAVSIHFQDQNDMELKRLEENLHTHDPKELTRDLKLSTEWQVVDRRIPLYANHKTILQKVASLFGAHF

B1: Endogenous PKCγ of mouse brain and cultured mouse cortical neurons (enzyme)
chain: not shown
notes: whole, on cells; also called neuron-specific PKC
- amount of PKCγ pulled down by anti-TRPM2, MCAO against sham mice: ~1.5 fold
